Reference: article PMC4821647
Residue numbers refer to the chain shown, from its start.

T1: Arid5a (Mus musculus, UniProt Q3U108 1-590)
T1 sequence: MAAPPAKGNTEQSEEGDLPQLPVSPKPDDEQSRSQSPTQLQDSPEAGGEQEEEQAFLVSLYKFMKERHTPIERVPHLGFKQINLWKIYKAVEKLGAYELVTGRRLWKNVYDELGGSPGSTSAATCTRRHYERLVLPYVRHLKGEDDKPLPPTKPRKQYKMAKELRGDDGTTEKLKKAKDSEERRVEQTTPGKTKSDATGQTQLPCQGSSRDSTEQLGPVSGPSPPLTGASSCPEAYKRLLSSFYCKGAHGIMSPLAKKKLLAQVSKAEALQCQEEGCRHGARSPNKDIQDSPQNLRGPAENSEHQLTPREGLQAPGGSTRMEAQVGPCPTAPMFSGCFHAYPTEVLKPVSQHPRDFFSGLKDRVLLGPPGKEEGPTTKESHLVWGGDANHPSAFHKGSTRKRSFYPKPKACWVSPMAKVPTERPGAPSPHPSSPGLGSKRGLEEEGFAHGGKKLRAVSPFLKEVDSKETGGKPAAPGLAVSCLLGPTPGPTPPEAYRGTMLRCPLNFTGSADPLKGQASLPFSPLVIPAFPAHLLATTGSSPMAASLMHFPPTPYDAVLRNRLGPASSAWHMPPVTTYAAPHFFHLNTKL

T2: Arid5a R128A (Mus musculus, UniProt Q3U108 1-590, R128A)
T2 sequence: T1 sequence with R128A


Experiments:
Arid5a = target: T1, Arid5a; assay: EMSA
Arid5a R128A = target: T2, Arid5a R128A; assay: EMSA

Binder | binding result (Arid5a) | binding result (Arid5a R128A)
UGCAGUGGCUUGUGUUCUGGCCACUGCA (structured_RNA) [STAT3 3'UTR (1738-1765) stem-loop] | binds | no binding
UGCACACCCUUGUGUUCUGGCCACUGCA (structured_RNA) [mutant stem-loop STAT3 3'UTR (1738-1765)] | no binding | –
